{"source": "paper PMC1236978", "binders": {"B1": {"name": "21mer hut RNA (minimal RNA element) (ssRNA)", "RNA": "CAUAGAUCUUAGACGAUAGGG"}}, "target": "T1, HutP (V51I) (Bacillus subtilis, UniProt P10943 1-148, V51I)", "T1 sequence": "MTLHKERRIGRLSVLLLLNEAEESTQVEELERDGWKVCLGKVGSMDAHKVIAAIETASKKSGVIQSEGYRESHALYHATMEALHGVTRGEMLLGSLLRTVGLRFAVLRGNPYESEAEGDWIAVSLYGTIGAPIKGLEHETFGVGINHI", "assay": "EMSA", "data": [{"binder": "B1", "values": [{"measurement": "binding result", "value": "binds"}]}]}
